7 molecules from patent US10428140B2, “Anti-EphA4 antibody” (EISAI R&D MANAGEMENT CO., LTD., priority 2015, dated 2019) can be followed below.

Common to all, as to test: Selectivity ELISA of humanized antibodies for human Eph receptor
Type in all cases: binding
A general note: In an ELISA, binding on a coated surface is turned into a signal by an enzyme label.

In assay [1] the target is T1, human EphB1 (Homo sapiens, UniProt P54762).
T1 construct: a protein of the extracellular region of each human Eph receptor fused with the SEAP protein and the His tag; made in house; host or cells: Expi293F cells (culture supernatant)
T1 sequence (P54762 18-540 limits assumed): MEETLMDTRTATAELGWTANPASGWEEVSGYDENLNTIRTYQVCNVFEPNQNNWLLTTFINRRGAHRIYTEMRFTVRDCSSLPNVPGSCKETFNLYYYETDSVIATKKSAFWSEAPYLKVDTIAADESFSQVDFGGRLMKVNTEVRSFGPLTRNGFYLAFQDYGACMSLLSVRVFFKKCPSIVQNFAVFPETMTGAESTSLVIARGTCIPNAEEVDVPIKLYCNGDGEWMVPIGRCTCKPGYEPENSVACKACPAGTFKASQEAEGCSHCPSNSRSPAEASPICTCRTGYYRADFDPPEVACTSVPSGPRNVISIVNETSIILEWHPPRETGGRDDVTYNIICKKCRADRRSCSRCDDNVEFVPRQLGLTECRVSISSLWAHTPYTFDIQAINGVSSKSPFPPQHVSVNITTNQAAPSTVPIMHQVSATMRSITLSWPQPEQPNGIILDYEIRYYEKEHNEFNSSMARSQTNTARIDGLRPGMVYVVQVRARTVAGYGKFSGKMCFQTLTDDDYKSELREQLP
The conditions noted are these: coated protein 1 nM. In outline: (§1)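 Capture ELISA: anti-6-His coat, 1% BlockAce block, Eph ECD-SEAP-His (1 nM final, Expi293F supernatant) 1 h RT, humanized Ab 1 h RT, HRP anti-IgG 1 h RT, TMB, H2SO4 stop, A450.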

Assay [2] addresses T2, human EphA4 (Homo sapiens, UniProt P54764).
T2 construct: made in house; not restated for the human SEAP-His protein
The conditions noted are these: coated protein 1 nM; reference set to 100%. In short, it runs like this: as §1

For assay [3], the target named is T3, human EphA1 (Homo sapiens, UniProt P21709).
T3 construct: a protein of the extracellular region of each human Eph receptor fused with the SEAP protein and the His tag; made in house; host or cells: Expi293F cells (culture supernatant)
T3 sequence (P21709 26-547 limits assumed): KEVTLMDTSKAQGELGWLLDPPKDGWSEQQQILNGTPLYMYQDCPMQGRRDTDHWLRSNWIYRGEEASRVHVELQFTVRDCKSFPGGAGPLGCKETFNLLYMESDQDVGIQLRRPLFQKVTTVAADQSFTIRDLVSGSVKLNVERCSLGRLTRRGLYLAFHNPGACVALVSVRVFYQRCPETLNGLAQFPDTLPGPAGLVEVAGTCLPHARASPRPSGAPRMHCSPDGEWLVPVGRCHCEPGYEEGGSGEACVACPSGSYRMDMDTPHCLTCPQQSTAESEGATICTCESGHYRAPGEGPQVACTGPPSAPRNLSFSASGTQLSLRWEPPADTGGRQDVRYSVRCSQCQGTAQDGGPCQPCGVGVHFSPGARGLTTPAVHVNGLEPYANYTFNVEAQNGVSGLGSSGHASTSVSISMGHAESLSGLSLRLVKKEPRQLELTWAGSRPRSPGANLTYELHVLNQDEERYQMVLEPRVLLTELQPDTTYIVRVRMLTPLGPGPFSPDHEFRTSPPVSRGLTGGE
The conditions noted are these: coated protein 1 nM. In outline:
as §1

Assay [4] deals with T4, human EphB2 (Homo sapiens, UniProt P29323).
T4 construct: a protein of the extracellular region of each human Eph receptor fused with the SEAP protein and the His tag; made in house; host or cells: Expi293F cells
T4 sequence (P29323 19-543 limits assumed): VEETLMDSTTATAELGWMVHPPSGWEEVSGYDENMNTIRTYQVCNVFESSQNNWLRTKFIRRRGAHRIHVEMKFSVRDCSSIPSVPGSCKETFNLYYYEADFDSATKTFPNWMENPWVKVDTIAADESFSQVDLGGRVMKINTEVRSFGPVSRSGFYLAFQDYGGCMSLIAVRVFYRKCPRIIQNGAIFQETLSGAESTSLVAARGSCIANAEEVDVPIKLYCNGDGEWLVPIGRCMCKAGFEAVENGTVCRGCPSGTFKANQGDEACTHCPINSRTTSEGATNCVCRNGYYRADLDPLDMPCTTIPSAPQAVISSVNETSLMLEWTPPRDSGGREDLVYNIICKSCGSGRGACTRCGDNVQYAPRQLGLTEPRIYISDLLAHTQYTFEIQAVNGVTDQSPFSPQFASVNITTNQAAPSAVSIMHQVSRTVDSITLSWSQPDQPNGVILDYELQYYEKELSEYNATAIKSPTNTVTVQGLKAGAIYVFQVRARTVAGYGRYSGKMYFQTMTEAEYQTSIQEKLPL
The conditions noted are these: coated protein 1 nM. In short, it runs like this:
as §1

T2 sequence (P54764 20-547): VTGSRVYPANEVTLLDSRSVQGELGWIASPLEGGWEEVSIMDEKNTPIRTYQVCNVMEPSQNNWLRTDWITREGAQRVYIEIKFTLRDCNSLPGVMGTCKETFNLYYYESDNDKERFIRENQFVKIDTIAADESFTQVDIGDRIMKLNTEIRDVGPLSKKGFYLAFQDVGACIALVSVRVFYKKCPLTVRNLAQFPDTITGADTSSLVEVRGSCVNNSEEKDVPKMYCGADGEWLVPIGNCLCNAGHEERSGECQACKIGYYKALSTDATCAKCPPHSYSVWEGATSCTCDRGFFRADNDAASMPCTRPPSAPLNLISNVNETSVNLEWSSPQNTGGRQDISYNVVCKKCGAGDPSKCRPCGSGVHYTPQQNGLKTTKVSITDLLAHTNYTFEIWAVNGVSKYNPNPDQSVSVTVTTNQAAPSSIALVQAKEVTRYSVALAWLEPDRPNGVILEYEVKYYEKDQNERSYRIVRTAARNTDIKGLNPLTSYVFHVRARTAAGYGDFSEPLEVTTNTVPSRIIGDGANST

B1: 140 (antibody, V domains shown)
VH: QVQLVQSGSELKKPGASVKVSCKASGYTFTDYSMHWVRQAPGQGLKWMGWINTETGEPTYAQGFTGRFVFSLDTSVSTAYLQISSLKAEDTAVYYCARIPLYYYGSRYWYFDVWGQGTTVTVSS
VL: DIQMTQSPSSLSASVGDRVTITCRASENIYRNLAWYQQKPGKAPKLLVYAATNLADGVPSRFSGSGSGTDYTLTISSLQPEDFATYYCQHFWGTPWTFGQGTKVEIK
modifications: synthetic humanized antibody heavy chain variable region sequence; synthetic humanized antibody light chain variable region sequence
Turning to B1, in assay [1], the “hEphB1-SEAP-: absorbance at 450 nm, percentage with respect to hEphA4-SEAP-His as 100%” value came to 5.3%. In assay [2], the “hEphA4-SEAP-: absorbance at 450 nm, percentage with respect to hEphA4-SEAP-His as 100%” value worked out at 100%. Also, the “hEphA1-SEAP-: absorbance at 450 nm, percentage with respect to hEphA4-SEAP-His as 100%” value in assay [3] was determined as 5.5%. Moreover, the “hEphB2-SEAP-: absorbance at 450 nm, percentage with respect to hEphA4-SEAP-His as 100%” value in assay [4] was found to be 5.3%.

B2: 153 (antibody, V domains shown)
VH: QVQLVQSGSELKKPGASVKVSCKASGYTFTDYSMHWVRQAPGQGLKWMGWINTETGEPTYAQGFTGRFVFSLDTSVSTAYLQISSLKAEDTAVYYCARIPLYYYGSRYWYFDVWGQGTTVTVSS
VL: DIQMTQSPSSLSASVGDRVTITCRASENIYRNLAWYQQKPGKAPKLLLYAATNLADGVPSRFSGSGSGTDYTLTISSLQSEDFATYYCQHFWGTPWTFGQGTKVEIK
modifications: synthetic humanized antibody heavy chain variable region sequence; synthetic humanized antibody light chain variable region sequence
B2: the “hEphB1-SEAP-: absorbance at 450 nm, percentage with respect to hEphA4-SEAP-His as 100%” value in assay [1] came out at 6.0%. Besides, in assay [2], the “hEphA4-SEAP-: absorbance at 450 nm, percentage with respect to hEphA4-SEAP-His as 100%” value stood at 100%. Moreover, in assay [3], the “hEphA1-SEAP-: absorbance at 450 nm, percentage with respect to hEphA4-SEAP-His as 100%” value was determined as 6.3%. The “hEphB2-SEAP-: absorbance at 450 nm, percentage with respect to hEphA4-SEAP-His as 100%” value in assay [4] is on record as 5.9%.

B3: 142 (antibody, V domains shown)
VH: QVQLVQSGSELKKPGASVKVSCKASGYTFTDYSMHWVRQAPGQGLKWMGWINTETGEPTYADDFKGRFVFSLDTSVSTAYLQISSLKAEDTAVYYCARIPLYYYGSRYWYFDVWGQGTTVTVSS
VL: DIQMTQSPSSLSASVGDRVTITCRASENIYRNLAWYQQKPGKAPKLLVYAATNLADGVPSRFSGSGSGTDYTLTISSLQPEDFATYYCQHFWGTPWTFGQGTKVEIK
modifications: synthetic humanized antibody heavy chain variable region sequence; synthetic humanized antibody light chain variable region sequence
Take B3: the “hEphB1-SEAP-: absorbance at 450 nm, percentage with respect to hEphA4-SEAP-His as 100%” value in assay [1] is 5.6%. Moreover, in assay [2], the “hEphA4-SEAP-: absorbance at 450 nm, percentage with respect to hEphA4-SEAP-His as 100%” value was found to be 100%. The “hEphA1-SEAP-: absorbance at 450 nm, percentage with respect to hEphA4-SEAP-His as 100%” value in assay [3] came out at 5.6%. In assay [4], the “hEphB2-SEAP-: absorbance at 450 nm, percentage with respect to hEphA4-SEAP-His as 100%” value stood at 5.6%.

B4: 152 (antibody, V domains shown)
VH: QVQLVQSGSELKKPGASVKVSCKASGYTFTDYSMHWVRQAPGQGLEWMGWINTETGEPTYAQGFTGRFVFSLDTSVSTAYLQISSLKAEDTAVYYCARIPLYYYGSRYWYFDVWGQGTTVTVSS
VL: DIQMTQSPSSLSASVGDRVTITCRASENIYRNLAWYQQKPGKAPKLLLYAATNLADGVPSRFSGSGSGTDYTLTISSLQSEDFATYYCQHFWGTPWTFGQGTKVEIK
modifications: synthetic humanized antibody heavy chain variable region sequence; synthetic humanized antibody light chain variable region sequence
On to B4, for which the “hEphB1-SEAP-: absorbance at 450 nm, percentage with respect to hEphA4-SEAP-His as 100%” value in assay [1] turned out to be 5.9%. In addition, the “hEphA4-SEAP-: absorbance at 450 nm, percentage with respect to hEphA4-SEAP-His as 100%” value in assay [2] turned out to be 100%. Besides, in assay [3], the “hEphA1-SEAP-: absorbance at 450 nm, percentage with respect to hEphA4-SEAP-His as 100%” value was found to be 5.8%. Further, the “hEphB2-SEAP-: absorbance at 450 nm, percentage with respect to hEphA4-SEAP-His as 100%” value in assay [4] is recorded as 5.8%.

B5: 141 (antibody, V domains shown)
VH: QVQLVQSGSELKKPGASVKVSCKASGYTFTDYSMHWVRQAPGQGLEWMGWINTETGEPTYADDFKGRFVFSLDTSVSTAYLQISSLKAEDTAVYYCARIPLYYYGSRYWYFDVWGQGTTVTVSS
VL: DIQMTQSPSSLSASVGDRVTITCRASENIYRNLAWYQQKPGKAPKLLVYAATNLADGVPSRFSGSGSGTDYTLTISSLQPEDFATYYCQHFWGTPWTFGQGTKVEIK
modifications: synthetic humanized antibody heavy chain variable region sequence; synthetic humanized antibody light chain variable region sequence
Take B5: the “hEphB1-SEAP-: absorbance at 450 nm, percentage with respect to hEphA4-SEAP-His as 100%” value in assay [1] came to 5.4%. In assay [2], the “hEphA4-SEAP-: absorbance at 450 nm, percentage with respect to hEphA4-SEAP-His as 100%” value is 100%. Besides, the “hEphA1-SEAP-: absorbance at 450 nm, percentage with respect to hEphA4-SEAP-His as 100%” value in assay [3] was determined as 5.3%. Moreover, in assay [4], the “hEphB2-SEAP-: absorbance at 450 nm, percentage with respect to hEphA4-SEAP-His as 100%” value was found to be 5.2%.

B6: 143 (antibody, V domains shown)
VH: QIQLVQSGSELKKPGASVKVSCKASGYTFTDYSMHWVRQAPGQGLKWMGWINTETGEPTYADDFKGRFVFSLDTSVSTAYLQISSLKAEDTAVYYCARIPLYYYGSRYWYFDVWGQGTTVTVSS
VL: DIQMTQSPSSLSASVGDRVTITCRASENIYRNLAWYQQKPGKAPKLLVYAATNLADGVPSRFSGSGSGTDYTLTISSLQPEDFATYYCQHFWGTPWTFGQGTKVEIK
modifications: synthetic humanized antibody heavy chain variable region sequence; synthetic humanized antibody light chain variable region sequence
In the case of B6, the “hEphB1-SEAP-: absorbance at 450 nm, percentage with respect to hEphA4-SEAP-His as 100%” value in assay [1] came out at 5.9%. Also, the “hEphA4-SEAP-: absorbance at 450 nm, percentage with respect to hEphA4-SEAP-His as 100%” value in assay [2] was determined as 100%. Moreover, in assay [3], the “hEphA1-SEAP-: absorbance at 450 nm, percentage with respect to hEphA4-SEAP-His as 100%” value is given as 6.0%. Besides, in assay [4], the “hEphB2-SEAP-: absorbance at 450 nm, percentage with respect to hEphA4-SEAP-His as 100%” value was 5.8%.

B7: 138 (antibody, V domains shown)
VH: QIQLVQSGSELKKPGASVKVSCKASGYTFTDYSMHWVRQAPGQGLKWMGWINTETGEPTYAQGFTGRFVFSLDTSVSTAYLQISSLKAEDTAVYYCARIPLYYYGSRYWYFDVWGQGTTVTVSS
VL: DIQMTQSPSSLSASVGDRVTITCRASENIYRNLAWYQQKPGKAPKLLVYAATNLADGVPSRFSGSGSGTDYTLTISSLQPEDFATYYCQHFWGTPWTFGQGTKVEIK
modifications: synthetic humanized antibody heavy chain variable region sequence; synthetic humanized antibody light chain variable region sequence
Consider B7, for which the “hEphB1-SEAP-: absorbance at 450 nm, percentage with respect to hEphA4-SEAP-His as 100%” value in assay [1] is on record as 5.1%. For the same molecule, the “hEphA4-SEAP-: absorbance at 450 nm, percentage with respect to hEphA4-SEAP-His as 100%” value in assay [2] was 100%. Moreover, the “hEphA1-SEAP-: absorbance at 450 nm, percentage with respect to hEphA4-SEAP-His as 100%” value in assay [3] was found to be 5.2%. Besides, in assay [4], the “hEphB2-SEAP-: absorbance at 450 nm, percentage with respect to hEphA4-SEAP-His as 100%” value stood at 5.2%.
